According to patent publication US20050112121A1 (YALE UNIVERSITY, published 2005):

B2: Serrate (Drosophila), expression construct Ser-mtn (ligand, UniProt P18168 83-1407, looked up)
chain: AGNFELEILEISNTNSHLLNGYCCGMPAELRATKTIGCSPCTTAFRLCLKEYQTTEQGASISTGCSFGNATTKILGGSSFVLSDPGVGAIVLPFTFRWTKSFTLILQALDMYNTSYPDAERLIEETSYSGVILPSPEWKTLDHIGRNARITYRVRVQCAVTYYNTTCTTFCRPRDDQFGHYACGSEGQKLCLNGWQGVNCEEAICKAGCDPVHGKCDRPGECECRPGWRGPLCNECMVYPGCKHGSCNGSAWKCVCDTNWGGILCDQDLNFCGTHEPCKHGGTCENTAPDKYRCTCAEGLSGEQCEIVEHPCATRPCRNGGTCTLKTSNRTQAQVYRTSHGRSNMGRPVRRSSSMRSLDHLRPEGQALNGSSSPGLVSLGSLQLQQQLAPDFTCDCAAGWTGPTCEINIDECAGGPCEHGGTCIDLIGGFRCECPPEWHGDVCQVDVNECEAPHSAGIAANALLTTTATAIIGSNLSSTALLAALTSAVASTSLAIGPCINAKECRNQPGSFACICKEGWGGVTCAENLDDCVGQCRNGATCIDLVNDYRCACASGFKGRDCETDIDECATSPCRNGGECVDMVGKFNCICPLGYSGSLCEEAKENCTPSPCLEGHCLNTPEGYYCHCPPDRAGKHCEQLRPLCSQPPCNEGCFANVSLATSATTTTTTTTTATTTRKMAKPSGLPCSGHGSCEMSDVGTFCKCHVGHTGTFCEHNLNECSPNPCRNGGICLDGDGDFTCECMSGWTGKRCSERATGCYAGQCQNGGTCMPGAPDKALQPHCRCAPGWTGLFCAEAIDQCRGQPCHNGGTCESGAGWFRCVCAQGFSGPDCRINVNECSPQPCQGGATCIDGIGGYSCICPPGRHGLRCEILLSDPKSACQNASNTISPYTALNRSQNWLDIALTGRTEDDENCNACVCENGTSRCTNLWCGLPNCYKVDPLSKSSNLSGVCKQHEVCVPALSETCLSSPCNVRGDCRALEPSRRVAPPRLPAKSSCWPNQAVVNENCARLTILLALERVGKGASVEGLCSLVRVLLAAQLIKKPASTFGQDPGMLMVLCDLKTGTNDTVELTVSSSKLNDPQLPVAVGLLGELLSFRQLNGIQRRKELELQHAKLAALTSIVEVKLETARVADGSGHSLLIGVLCGVFIVLVGFSVFISLYWKQRLAYRTSSGMNLTPSLDALRHEEEKSNNLQNEENLRRYTNPLKGSTSSLRAATGMELSLNPAPELAASAASSSALHRSQPLFPPCDFERELDSSTGLKQAHKRSSQILLHKTQNSDMRKNTVGSLDSPRKDFGKRSINCKSMPPSSGDEGSDVLATTVMV
notes: whole, on cells

Tests used:
[1] = biological target: Delta (Drosophila), expression construct pMTDl1 (Drosophila) (UniProt P10041); assay: S2 cell aggregation, 48 hr
[2] = biological target: Delta (Drosophila), expression construct pMTDl1 (Drosophila) (UniProt P10041); assay: S2 cell aggregation at 4 C, 1-2 hr, Notch+ cells pretreated with preimmune mouse sera (control; one of three experiments)
[3] = biological target: Notch (Drosophila), full length Notch expression construct #1 pMtNMg (Drosophila) (UniProt P07207); assay: S2 cell aggregation, 24 hr, Notch+ cells alone
[4] = biological target: Delta (Drosophila), expression construct pMTDl1 (Drosophila) (UniProt P10041); assay: S2 cell aggregation, 24 hr
[5] = biological target: B2; assay: S2 cell aggregation assay
From the text: (§1) FIG. 2. Notch Expression Constructs and the Deletion Mapping of the Delta/Serrate Binding Domain. S2 cells in log phase growth were transiently transfected with the series of expression constructs shown; the drawings represent the predicted protein products of the various Notch deletion mutants created. All expression constructs were derived from construct #1 pMtNMg. Transiently transfected cells were mixed with Delta expressing cells from the stably transformed line L49-6-7 or with transiently transfected Serrate expressing cells, induced with CuSO₄, incubated under aggregation conditions and then scored for their ability to aggregate using specific antisera and immunofluorescence microscopy. Aggregates were defined as clusters of four or more cells containing both Notch and Delta/Serrate expressing cells. The values given for % Aggregation refer to the percentage of all Notch expressing cells found in such clusters either with Delta (Dl) (left column) or with Serrate (Ser) (right column). The various Notch deletion constructs are represented diagrammatically with splice lines indicating the ligation junctions. Each EGF repeat is denoted as a stippled rectangular box and numbers of the EGF repeats on either side of a ligation junction are noted. At the ligation junctions, partial EGF repeats produced by the various deletions are denoted by open boxes and closed brackets (for example see #23 ΔCla+EGF(10-12)). Constructs #3-13 represent the ClaI deletion series. As diagrammed, four of the ClaI sites, in repeats 7, 9, 17 and 26, break the repeat in the middle, immediately after the third cysteine (denoted by open box repeats; see FIG. 3 for further clarification), while the fifth and most 3′ site breaks neatly between EGF repeats 30 and 31 (denoted by closed box repeat 31; again see FIG. 3). In construct #15 split, EGF repeat 14 which carries the split point mutation, is drawn as a striped box. In construct #33 ΔCla+XEGF(10-13), the Xenopus Notch derived EGF repeats are distinguished from Drosophila repeats by a different pattern of shading. […]

[6] = biological target: T1, Notch (Drosophila), full length Notch expression construct #1 pMtNMg (Drosophila, UniProt P07207 53-2703); assay: S2 cell aggregation assay
T1 construct: whole, on cells; also called intact Notch; Notch+ cells
T1 sequence (P07207 53-2703): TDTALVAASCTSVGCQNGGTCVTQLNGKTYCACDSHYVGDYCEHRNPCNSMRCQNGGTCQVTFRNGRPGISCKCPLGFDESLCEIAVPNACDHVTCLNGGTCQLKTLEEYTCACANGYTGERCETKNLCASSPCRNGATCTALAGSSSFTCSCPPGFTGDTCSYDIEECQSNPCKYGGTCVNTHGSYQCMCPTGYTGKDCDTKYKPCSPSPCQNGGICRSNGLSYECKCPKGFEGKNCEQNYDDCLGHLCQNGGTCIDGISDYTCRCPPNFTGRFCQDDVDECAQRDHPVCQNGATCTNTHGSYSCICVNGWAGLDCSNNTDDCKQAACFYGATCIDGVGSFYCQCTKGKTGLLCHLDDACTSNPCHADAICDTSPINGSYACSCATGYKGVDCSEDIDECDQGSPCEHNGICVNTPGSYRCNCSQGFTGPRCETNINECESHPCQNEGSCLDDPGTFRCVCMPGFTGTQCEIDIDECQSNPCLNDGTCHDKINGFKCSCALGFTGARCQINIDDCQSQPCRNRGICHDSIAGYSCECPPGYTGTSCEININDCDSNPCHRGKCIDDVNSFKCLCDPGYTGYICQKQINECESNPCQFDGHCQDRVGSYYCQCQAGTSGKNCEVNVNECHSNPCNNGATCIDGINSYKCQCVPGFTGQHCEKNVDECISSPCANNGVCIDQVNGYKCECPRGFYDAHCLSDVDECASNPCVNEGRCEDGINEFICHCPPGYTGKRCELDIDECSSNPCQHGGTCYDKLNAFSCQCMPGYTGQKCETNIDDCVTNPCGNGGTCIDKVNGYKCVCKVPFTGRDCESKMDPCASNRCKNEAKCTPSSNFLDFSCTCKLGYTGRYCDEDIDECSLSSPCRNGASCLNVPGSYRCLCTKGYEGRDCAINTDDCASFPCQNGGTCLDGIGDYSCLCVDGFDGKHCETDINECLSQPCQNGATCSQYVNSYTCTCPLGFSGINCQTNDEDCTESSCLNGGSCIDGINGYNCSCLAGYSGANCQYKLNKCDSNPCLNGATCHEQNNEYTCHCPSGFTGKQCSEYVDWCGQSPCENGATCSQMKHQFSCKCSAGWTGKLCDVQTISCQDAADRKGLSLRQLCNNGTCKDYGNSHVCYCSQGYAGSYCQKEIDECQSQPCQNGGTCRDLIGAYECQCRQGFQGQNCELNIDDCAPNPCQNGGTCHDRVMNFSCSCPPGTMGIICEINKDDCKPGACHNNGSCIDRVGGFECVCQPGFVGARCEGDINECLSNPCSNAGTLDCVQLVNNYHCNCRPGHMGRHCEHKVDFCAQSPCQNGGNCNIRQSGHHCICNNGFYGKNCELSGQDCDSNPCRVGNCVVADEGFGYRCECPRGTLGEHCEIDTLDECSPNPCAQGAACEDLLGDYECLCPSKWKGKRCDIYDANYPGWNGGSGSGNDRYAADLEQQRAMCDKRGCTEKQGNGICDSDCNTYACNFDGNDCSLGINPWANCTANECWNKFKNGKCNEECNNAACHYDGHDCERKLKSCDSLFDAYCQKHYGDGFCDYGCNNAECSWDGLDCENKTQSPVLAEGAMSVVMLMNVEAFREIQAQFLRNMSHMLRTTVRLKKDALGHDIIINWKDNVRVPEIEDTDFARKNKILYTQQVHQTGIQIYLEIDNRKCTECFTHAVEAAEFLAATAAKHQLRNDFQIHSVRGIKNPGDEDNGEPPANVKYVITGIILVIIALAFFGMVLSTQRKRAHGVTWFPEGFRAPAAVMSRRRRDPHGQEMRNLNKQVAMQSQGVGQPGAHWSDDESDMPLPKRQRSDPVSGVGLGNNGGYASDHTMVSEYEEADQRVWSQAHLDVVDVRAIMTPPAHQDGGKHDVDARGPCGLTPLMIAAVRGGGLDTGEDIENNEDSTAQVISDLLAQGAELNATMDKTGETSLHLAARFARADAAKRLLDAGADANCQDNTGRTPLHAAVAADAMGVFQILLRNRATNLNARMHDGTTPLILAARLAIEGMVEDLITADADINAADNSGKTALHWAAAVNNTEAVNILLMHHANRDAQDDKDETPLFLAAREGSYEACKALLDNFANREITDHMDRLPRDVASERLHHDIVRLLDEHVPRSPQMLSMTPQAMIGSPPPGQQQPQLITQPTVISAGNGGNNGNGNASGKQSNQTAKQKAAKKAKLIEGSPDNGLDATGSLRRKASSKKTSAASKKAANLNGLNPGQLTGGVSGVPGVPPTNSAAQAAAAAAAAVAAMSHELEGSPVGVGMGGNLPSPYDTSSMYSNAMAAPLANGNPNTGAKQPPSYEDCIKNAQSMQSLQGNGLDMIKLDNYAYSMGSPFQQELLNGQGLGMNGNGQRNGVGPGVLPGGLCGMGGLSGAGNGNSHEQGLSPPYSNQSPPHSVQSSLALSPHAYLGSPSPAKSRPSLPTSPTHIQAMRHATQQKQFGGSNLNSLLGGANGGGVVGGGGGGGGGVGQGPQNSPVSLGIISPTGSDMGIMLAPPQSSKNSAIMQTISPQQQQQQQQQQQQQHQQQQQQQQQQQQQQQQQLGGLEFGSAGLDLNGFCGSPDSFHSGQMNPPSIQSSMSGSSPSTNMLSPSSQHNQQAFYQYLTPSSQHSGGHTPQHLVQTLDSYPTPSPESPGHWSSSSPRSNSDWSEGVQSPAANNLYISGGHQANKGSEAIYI
From the text: as §1

[7] = biological target: the molecule itself; assay: S2 cell aggregation assay
From the text: as §1

Q: “Notch (Drosophila), full length Notch expression construct #1 pMtNMg, P07207 53-2703” was tested. Which degree of aggregation [1] did it give?
A: 63 to 71%

Q: And the % of Notch+ cells in Notch+-Delta+ cell aggregates [2]?
A: 23%

Q: And the fraction of expressing cells found in clusters of four or more stained cells [3]?
A: -0 to 5%

Q: And the fraction of expressing cells found in clusters of four or more stained cells [4]?
A: 32 to 54%

B1: Delta (Drosophila), expression construct pMTDl1 (ligand)
chain: QVHSSGSFELRLKYFSNDHGRDNEGRCCSGESDGATGKCLGSCKTRFRVCLKHYQATIDTTSQCTYGDVITPILGENSVNLTDAQRFQNKGFTNPIQFPFSFSWPGTFSLIVEAWHDTNNSGNARTNKLLIQRLLVQQVLEVSSEWKTNKSESQYTSLEYDFRVTCDLNYYGSGCAKFCRPRDDSFGHSTCSETGEIICLTGWQGDYCHIPKCAKGCEHGHCDKPNQCVCQLGWKGALCNECVLEPNCIHGTCNKPWTCICNEGWGGLYCNQDLNYCTNHRPCKNGGTCFNTGEGLYTCKCAPGYSGDDCENEIYSCDADVNPCQNGGTCIDEPHTKTGYKCHCANGWSGKMCEEKVLTCSDKPCHQGICRNVRPGLGSKGQGYQCECPIGYSGPNCDLQLDNCSPNPCINGGSCQPSGKCICPAGFSGTRCETNIDDCLGHQCENGGTCIDMVNQYRCQCVPGFHGTHCSSKVDLCLIRPCANGGTCLNLNNDYQCTCRAGFTGKDCSVDIDECSSGPCHNGGTCMNRVNSFECVCANGFRGKQCDEESYDSVTFDAHQYGATTQARADGLTNAQVVLIAVFSVAMPLVAVIAACVVFCMKRKRKRAQEKDDAEARKQNEQNAVATMHHNGSGVGVALASASLGGKTGSNSGLTFDGGNPNIIKNTWDKSVNNICASAAAAAAAAAAADECLMYGGYVASVADNNNANSDFCVAPLQRAKSQKQLNTDPTLMHRGSPAGSSAKGASGGGPGAAEGKRISVLGEGSYCSQRWPSLAAAGVAGACSSQLMAAASAAGSGAGTAQQQRSVVCGTPHM
notes: also called Delta+ cells; L49-6-7 stably transformed Delta expressing cell line
Q: Does B1 bind [5]?
A: no binding

Q: Does B1 bind [6]?
A: binds

Q: Does B2 bind [7]?
A: no binding
